Measured values published in patent US20260234660A1 (Regeneron, published 2026).
Like-named read-outs stand apart in the source and are kept apart here. One block for each binder: values may come before it.

Tests used:
[1] = target: T1, nanodisc embedded human CACNG1 expressed with a C-terminal PADRE-Flag-His tag (human, UniProt Q06432 1-222); experiment: SPR (Biacore T200), 25 C, anti-His-captured human CACNG1 nanodisc, antibody as analyte
T1 construct: Membrane protein (gamma-1 subunit of the skeletal muscle L-type calcium channel) in a nanodisc; also called human CACNG1 nanodisc; CACNG1 nanodisc; not shown: C-terminal PADRE-Flag-His tag
Procedure: Equilibrium dissociation constants (KD values) for nanodisc embedded human CACNG1 expressed with a C-terminal PADRE-Flag-His tag (human CACNG1 nanodisc) binding to purified anti-hCACNG1 antibodies were determined using a real-time surface plasmon resonance biosensor technology with a Biacore T200 instrument. The CM5 Biacore sensor surface was derivatized by amine coupling with a monoclonal mouse anti-His antibody (Cytiva; Marlborough, MA). All Biacore binding studies were performed in a buffer composed of 0.01M HEPES, 0.15M NaCl, 1 mM CaCl₂), 0.5 mM MgCl₂, pH 7.4 (HBS-N++ running buffer). Different concentrations of anti-hCACNG1 antibodies (ranging from 300 nM to 12 nM in 5-fold serial dilutions) prepared in HBS-N++ running buffer were injected over the captured human CACNG1 nanodisc at a flow rate of 30 μL/minute. Antibody association was monitored for 2 minutes while dissociation was monitored in HBS-N++ running buffer for 5 minutes. At the end of each cycle, the human CACNG1 nanodisc capture surface was regenerated using three 10 second injections of 10 mM Gly pH1.5. All binding kinetics experiments were performed at 25° C.

[2] = target: T2, human CACNG1, cell surface-expressed (human, UniProt Q06432 1-222); experiment: cell-based or functional assay
[3] = target: T2, human CACNG1, cell surface-expressed; experiment: cell-based or functional assay; remark: listed apart in the source
[4] = target: T2, human CACNG1, cell surface-expressed; experiment: cell-based or functional assay; remark: listed apart in the source
[5] = target: T2, human CACNG1, cell surface-expressed; experiment: cell-based or functional assay; remark: listed apart in the source
[6] = target: T2, human CACNG1, cell surface-expressed; experiment: cell-based or functional assay; remark: listed apart in the source
[7] = target: T2, human CACNG1, cell surface-expressed; experiment: cell-based or functional assay; remark: listed apart in the source

T2 sequence (Q06432 whole entry): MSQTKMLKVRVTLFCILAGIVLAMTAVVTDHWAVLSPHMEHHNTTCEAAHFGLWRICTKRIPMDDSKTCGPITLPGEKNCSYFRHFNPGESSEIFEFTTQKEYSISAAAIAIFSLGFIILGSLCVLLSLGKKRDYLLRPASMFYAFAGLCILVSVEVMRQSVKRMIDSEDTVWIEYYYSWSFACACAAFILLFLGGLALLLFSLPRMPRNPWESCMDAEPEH
T1 sequence (Q06432 whole entry): as above

mAb Bound at 300 nM (RU) [1]: 31 RU
B1: REGN10716 (antibody, human IgG4 S228P, kappa, V domains shown)
VH: QVQLQESGPGLVKPSETLSLTCTVSGDSINNYYWTWLRQPPGKGLEWIGYIYYSGSANYNPSLKSRVTISVDTSKNQFSLKLNSVTAADTAVYYCARGAVKYFRHWGQGTLVTVSS
VL: EIVLTQSPGTLSLSPGERATLSCRASQTINHNNLAWYQQRPGQAPRLLIYGASNRATAIPDRFSGSGSGTDFTLTISRLEPEDFEVYSCQQYGSLPLTFGGGTKVEIKR
notes: also called antibody designation 4

EC50; androgen receptor luciferase reporter (RLU), hCACNG1.AR.Luc LNCaP cells, 24 hours [2]: 11.2 nM | EC50; androgen receptor luciferase reporter (RLU), hCACNG1.AR.Luc LNCaP cells, 72 hours [3]: 10.3 nM | EC50; androgen receptor luciferase reporter (RLU), hCACNG1.AR.Luc LNCaP cells, 48 hours [4]: 11.9 nM
B2: REGN14572-M3004 (antibody, V domains shown)
VH: QVQLVESGGGVVQPGRSLRLSCAASGFTFSTYGMHWVRQAPGKGLEWVAVIWHDGSDKYYVDSVKGRFSIARDNSKNTLYLQMNSLRVEDTGIYYCARRGIRGTVFDHWGLGTLVTVSS
VL: DIQMTQSPSTLSASVGDRVTLTCRASQSISNKLAWYQQKPGKAPNLLIYKASNLESGVPSRFSGSGSGTEFTLTISSLQPDDFATYYCQQYNSYSWTFGQGTKVEIKR

mAb Bound at 300 nM (RU) [1]: 7 RU
B3: REGN10717 (antibody, human IgG4 S228P, kappa, V domains shown)
VH: B2 VH
VL: B2 VL
notes: also called antibody designation 3

EC50; androgen receptor luciferase reporter (RLU), hCACNG1.AR.Luc LNCaP cells, 48 hours [5]: 6.04 nM | EC50; androgen receptor luciferase reporter (RLU), hCACNG1.AR.Luc LNCaP cells, 72 hours [6]: 7.36 nM | EC50; androgen receptor luciferase reporter (RLU), hCACNG1.AR.Luc LNCaP cells, 24 hours [7]: 6.75 nM
B4: REGN14647-M3004 (antibody, V domains shown)
VH: QVQLVESGGGVVQPGRSLRLSCTASGITFRNYGMHWVRQAPGKGLEWVAVMWYDGSNKYYADSVKGRFTISGDNSKVYLQMNSLRAEDTAVYYCARRGTIRTAAPFDYWGQGTLVTVSS
VL: not shown
modifications: N180Q in the constant region; linker-payload M3004 (VC-PAB linker, DHT), DAR ~4

mAb Bound at 300 nM (RU) [1]: 25 RU
B5: H2aM31929N/REGN10728 (antibody, human IgG4 S228P, kappa, V domains shown)
VH: B4 VH
VL: not shown
notes: also called antibody designation 1

mAb Bound at 300 nM (RU) [1]: 16 RU
B6: H2aM31944N (antibody, mouse IgG2a, kappa, V domains shown)
VH: QVQLVESGGGVVQPGRSLRLSCEASGITFRNYGMHWVRQAPGKGLEWVAVMWYDGSNKYYADSVKGRFTISRDNSKNTVYLQMNSLRAEDTAVYYCARRGHIATAAPFDYWGQGTLVTVSS
VL: DIQMTQSPSSLSASVGDRVTISCRASQSISSYLNWYQQKPGKAPKVLMYAASSLQSGVPSRFSGSGSGTDFTLTISSLQPEDFATYYCQQSYSTPPITFGQGTRLEIKR
notes: also called antibody designation 6

mAb Bound at 300 nM (RU) [1]: 22 RU
B7: REGN9909 (antibody, mouse IgG2a, kappa, V domains shown)
VH: EVQLLESGGGLVQPGGSLRLSCAASGFTFNNYGMSWVRQGPGKGLEWVSSISGSGGTTFYADSVKGRFTISRDNSKNTLYLQMNSLRAEDTAVYYCGKGGYCSSSGCRHYGMDVWGQGTTVTVSS
VL: QSVLTQPPSASGTPGQRVTISCSGSSSNIGNNYIYWYQRLPGTTPKLLIYRNNQRPSGVPDRFSGSKSGTSASLAISGLRSEDEADYYCAAWDDTLSGYVFGTGTKVTVLR
notes: also called antibody designation 10

EC50; androgen receptor luciferase reporter (RLU), hCACNG1.AR.Luc LNCaP cells, 48 hours [5]: 213 nM | EC50; androgen receptor luciferase reporter (RLU), hCACNG1.AR.Luc LNCaP cells, 72 hours [6]: 185 nM | EC50; androgen receptor luciferase reporter (RLU), hCACNG1.AR.Luc LNCaP cells, 24 hours [7]: 214 nM
B8: REGN14573-M3004 (antibody, V domains shown)
VH: EVQLVESGGNLVQPGGSLRLSCAASGFTFTSHAMNWVRQAPGKGLEWVSVITGRGFDTHYADSVKGRFTISRDISKNTLYLQMNSLRAEDTAVYYCAKGLYDSGNYYIDYWGQGTLVTVSS
VL: QSVLTQPPSVSAAPGQKVTISCSGSSSNIGNNYVSWYQQLPGTAPKLLIYDNNKRPSGIPDRFSGSKSGTSATLGITGLQTGDEADYYCGTWDLSLSFNWVFGGGTKLTVLG
modifications: N180Q in the constant region; linker-payload M3004 (VC-PAB linker, DHT), DAR ~4

mAb Bound at 300 nM (RU) [1]: 53 RU
B9: REGN10713 (antibody, human IgG4 S228P, lambda, V domains shown)
VH: B8 VH
VL: B8 VL
notes: also called antibody designation 11

mAb Bound at 300 nM (RU) [1]: 9 RU
B10: REGN10783 (antibody, human IgG4 S228P, kappa, V domains shown)
VH: QVQLVESGGGVVQPGTSLRLSCAASGFTFSSYGMHWVRQAPGKGLEWVAVIWIDGSNKYYADSVKGRFTISRDNSKNTLYLQMNSLRAEDTAVYYCARRGGIVVAAPFDYWGQGTLVTVSS
VL: not shown
notes: also called antibody designation 5

mAb Bound at 300 nM (RU) [1]: 23 RU
B11: REGN7660 (antibody, human IgG4 S228P, kappa, V domains shown)
VH: EVQLVESGGGLVQPGGSLKLSCTASGLTLSDSAMHWVRQASGKGLEWVGRIRNKANRYATEYAASVKGRFTISRDDSKNTAYLQMNSLKTEDTAVYYCTRNWKIFLFDYWGQGTLVTVSS
VL: EIVLTQSPGTLTLSPGERATLSCRASQSVGSKYLAWFQQKRGQAPRLLIYGASSRTSGIPDRISGSGSGTDFTLTISRLEPEDFAVYYCQQYGSSPWTFGQGTKVEIKR
notes: also called antibody designation 9

EC50; androgen receptor luciferase reporter (RLU), hCACNG1.AR.Luc LNCaP cells, 24 hours [2]: 2 nM | EC50; androgen receptor luciferase reporter (RLU), hCACNG1.AR.Luc LNCaP cells, 72 hours [3]: 6.65 nM | EC50; androgen receptor luciferase reporter (RLU), hCACNG1.AR.Luc LNCaP cells, 48 hours [4]: 5.83 nM
B12: REGN14570-M3004 (antibody, V domains shown)
VH: QVQLQQWGAGLLKPSATLSRTCAVYGGSFSGYYWNWIRQSPGKGLEWIGEILHSGRTNYNPSLKSRVTISVDTSKNQFSLKLTSVTAADTAVYYCAGRIAARHGWFDPWGQGTLVTVSS
VL: DIQMTQSPSSVSTSVGDRVTISCRASQDIRKWLAWYQQKPGKAPKLLIYATSSLQSGVPSRFSGSGSGTDFTLTISSLQPEDFATYFCQQANSFPFTFGQGTKLEIKR

mAb Bound at 300 nM (RU) [1]: 31 RU
B13: REGN10715 (antibody, human IgG4 S228P, kappa, V domains shown)
VH: B12 VH
VL: B12 VL
notes: also called antibody designation 2

mAb Bound at 300 nM (RU) [1]: 19 RU
B14: H2aM31941N (antibody, V domains shown)
VH: QVQLVQSGAEVKKPGASVKVSCKASGYAFTTYGITWVRQAPGQGLEWMGWISAYNGNTNYAEKVQGRFTMTTDTSTNTAYMELRSLRSDDTAVYFCARKGHYGSGTYYNPFGFDFWGQGTMVTVSS
VL: EIMLMQSPGTLSLSPGERATLSCRASQSVSSSYLAWYQQKPGQAPRLLIYGASSRATDIPDRFSGSGSGTDFTLTISRLEPEDFAVYFCQQYYGSPWTFGQGTKVEIK
notes: also called antibody designation 8
